Assay results as given in paper PMC9189065.

Key:
[1] = biological target: mouse METAP1(1-79) (mouse) (UniProt Q8BP48); assay: other fluorescence titration
[2] = biological target: mouse METAP1(1-59) (mouse) (UniProt Q8BP48); assay: other fluorescence titration

## mouse ZNG1 N-terminal peptide, synthetic
[1]
  Kd: 0.1 µM
  stoichiometry N: 1
[2]
  Kd: 0.1 µM
  stoichiometry N: 1
